How the values were obtained:
Experiment in all cases: EMSA; also decreased affinity in quantified assay
Conditions in all cases: tags: His-tag, E. coli; stem-loop
PAH S349L = molecular target: T1, PAH S349L (Homo sapiens, UniProt P00439 P00439:1-452, S349L)
T1 sequence: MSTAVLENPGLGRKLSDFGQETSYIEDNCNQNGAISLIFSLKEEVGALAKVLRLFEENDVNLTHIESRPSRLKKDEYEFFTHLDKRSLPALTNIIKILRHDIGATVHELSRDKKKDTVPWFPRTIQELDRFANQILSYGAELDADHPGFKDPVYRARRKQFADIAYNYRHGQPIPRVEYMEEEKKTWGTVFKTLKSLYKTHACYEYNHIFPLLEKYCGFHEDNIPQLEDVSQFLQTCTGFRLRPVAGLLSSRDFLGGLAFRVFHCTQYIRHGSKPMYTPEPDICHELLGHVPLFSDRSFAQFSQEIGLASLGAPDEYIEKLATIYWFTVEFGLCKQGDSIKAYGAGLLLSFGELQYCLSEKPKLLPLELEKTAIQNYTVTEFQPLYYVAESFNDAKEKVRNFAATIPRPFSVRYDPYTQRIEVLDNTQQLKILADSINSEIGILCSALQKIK
Text: (§1) It was reasoned that supplementing lncRNAs might improve the catalytic activities of the PAH mutants, leading to reduced serum Phe concentrations and improved symptoms in patients with PKU. Scramble (Scr) and HULC mimics representing wild-type HULC nt. 181-201 and HULC A191G mutated sequences were designed for the following studies. 17 PAH mutants that were identified from patients with PKU and are known to affect the enzymatic activity of PAH (21, 22) were selected, and bacterially-expressed wild-type and mutant PAH (FIG. 10 and see FIG. S13A in Li et al. 2021) were collected. […] The denatured wild-type PAH proteins were included as a negative control.
(§2) RNA Electrophoretic Mobility Shift Assay (EMSA). The gel mobility shift assay was performed as previously described (42). Briefly, 500 ng recombinant His-tagged wild-type PAH or mutants were incubated with 0.035 μmol labeled probe in a RNA-protein binding buffer [(50 mM Tris-HCl 7.9, 10% glycerol, 100 mM KCl, 5 mM MgCl₂, 10 mM (3-ME, 0.1% NP40] for 30 min at 30° C. For cold RNA competition, 0.035 μmol radiolabeled RNA probes were first mixed with 7 μmol cold RNA competitors and then subjected to the gel shift assay.

PAH R157N = molecular target: T2, PAH R157N (Homo sapiens, UniProt P00439 P00439:1-452, R157N)
T2 sequence: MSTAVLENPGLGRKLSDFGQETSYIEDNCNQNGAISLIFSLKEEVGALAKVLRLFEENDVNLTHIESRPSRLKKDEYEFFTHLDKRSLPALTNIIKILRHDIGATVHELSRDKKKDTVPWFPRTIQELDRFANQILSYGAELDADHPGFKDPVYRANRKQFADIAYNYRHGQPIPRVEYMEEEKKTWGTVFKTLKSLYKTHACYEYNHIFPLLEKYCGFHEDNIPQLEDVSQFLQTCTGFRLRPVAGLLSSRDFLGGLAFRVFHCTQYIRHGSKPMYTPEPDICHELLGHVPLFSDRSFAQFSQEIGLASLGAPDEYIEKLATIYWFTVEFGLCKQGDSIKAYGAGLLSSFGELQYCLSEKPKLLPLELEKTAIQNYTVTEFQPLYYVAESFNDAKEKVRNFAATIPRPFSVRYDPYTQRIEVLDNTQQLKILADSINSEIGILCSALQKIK
Text: as §1, §2

PAH N207S = molecular target: T3, PAH N207S (Homo sapiens, UniProt P00439 P00439:1-452, N207S)
T3 sequence: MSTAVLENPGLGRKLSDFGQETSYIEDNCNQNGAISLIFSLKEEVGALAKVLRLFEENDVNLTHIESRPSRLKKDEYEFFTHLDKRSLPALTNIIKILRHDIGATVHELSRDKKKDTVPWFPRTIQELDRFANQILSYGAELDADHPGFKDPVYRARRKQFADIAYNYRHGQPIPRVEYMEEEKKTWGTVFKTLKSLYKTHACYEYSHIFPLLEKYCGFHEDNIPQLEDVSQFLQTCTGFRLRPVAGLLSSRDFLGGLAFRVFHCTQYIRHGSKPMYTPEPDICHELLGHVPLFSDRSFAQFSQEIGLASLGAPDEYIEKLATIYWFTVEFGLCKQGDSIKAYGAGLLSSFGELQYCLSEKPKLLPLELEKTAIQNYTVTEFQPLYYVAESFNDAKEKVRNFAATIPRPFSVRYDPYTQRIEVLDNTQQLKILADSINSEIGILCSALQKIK
Text: as §1, §2

Measured: binding result

CAAAAUGCAUAUGUAUCUUUG (ssRNA) [HULC 181-201 mimic]
no binding: all assays above

— US20240342207, “MODIFIED NUCLEIC ACID COMPOSITIONS AND ASSOCIATED METHODS FOR TREATMENT OF PHENYLKETONURIA” (BOARD OF REGENTS, THE UNIVERSITY OF TEXAS SYSTEM, published 2024)
